For assay [1], the target named is ribonucleoprotein (RNP). In words: AtheNA Multi-Lyte ANA, Ab at 12.5 ug/ml.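 Also: monoclonal antibodies screened for binding to a panel of nuclear autoantigens (SSA, SSB, Sm, RNP, Scl-70, Jo-1, dsDNA, CentB, histones), with anti-HIV and anti-RSV antibodies as controls.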
Assay [2] deals with systemic lupus erythematosus autoantigen SSA. In words: AtheNA Multi-Lyte ANA, Ab at 12.5 ug/ml.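 Also: monoclonal antibodies screened for binding to a panel of nuclear autoantigens (SSA, SSB, Sm, RNP, Scl-70, Jo-1, dsDNA, CentB, histones), with anti-HIV and anti-RSV antibodies as controls.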
In assay [3] the target is T1, Sm (sphingomyelin).
T1 construct: in an ANA panel of nuclear antigens Sm is usually the Smith ribonucleoprotein antigen; Kept, but see recheck
Nature of the assay: AtheNA Multi-Lyte ANA, Ab at 12.5 ug/ml.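 Also: monoclonal antibodies screened for binding to a panel of nuclear autoantigens (SSA, SSB, Sm, RNP, Scl-70, Jo-1, dsDNA, CentB, histones), with anti-HIV and anti-RSV antibodies as controls.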

Assay [4] concerns the target ribonucleoprotein (RNP). In words: AtheNA Multi-Lyte ANA, Ab at 6.25 ug/ml.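 Also: monoclonal antibodies screened for reactivity against a panel of nuclear autoantigens, with an anti-HIV and an anti-RSV monoclonal antibody serving as controls.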
In assay [5] the target is systemic lupus erythematosus autoantigen SSA. Nature of the assay: AtheNA Multi-Lyte ANA, Ab at 6.25 ug/ml.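 Also: monoclonal antibodies screened for reactivity against a panel of nuclear autoantigens, with an anti-HIV and an anti-RSV monoclonal antibody serving as controls.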
The target in assay [6] is T1, Sm (sphingomyelin). In words: AtheNA Multi-Lyte ANA, Ab at 6.25 ug/ml.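 Also: monoclonal antibodies screened for reactivity against a panel of nuclear autoantigens, with an anti-HIV and an anti-RSV monoclonal antibody serving as controls.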
Assay [7] addresses T2, 15-mer peptide GPPPPIDNGDITSFP (SEQ ID NO: 114) (human).
T2 construct: Immobilized for SPR; also called parent peptide
T2 peptide: GPPPPIDNGDITSFP
In words: assay and antigen not given; Example 10, epitope mapping on the 15-mer peptide.

The target in assay [8] is T3, GPPPPIDNGDITSFP(GGGK-biotin).
T3 construct: also called biotinylated 15-mer peptide; biotinylated 19-mer
T3 peptide: GPPPPIDNGDITSFPGGGK(Biotin)
Nature of the assay: ELISA: biotinylated peptide captured on immobilized Neutravidin, antibody at 0.5 µg/ml, anti-human IgG-HRP/ABTS, OD 405 nm. A general note: An ELISA detects its analyte on a solid surface through an enzyme-linked reagent.

The target in assay [9] is ribonucleoprotein (RNP). In words: AtheNA Multi-Lyte ANA, Ab at 50 ug/ml.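 Also: monoclonal antibodies probed against a nuclear autoantigen panel (SSA, SSB, Sm, RNP, Scl-70, Jo-1, dsDNA, CentB, histones), with anti-HIV 4E10 and palivizumab as control antibodies.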
The target of assay [10] is systemic lupus erythematosus autoantigen SSA. Nature of the assay: AtheNA Multi-Lyte ANA, Ab at 50 ug/ml.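 Also: monoclonal antibodies probed against a nuclear autoantigen panel (SSA, SSB, Sm, RNP, Scl-70, Jo-1, dsDNA, CentB, histones), with anti-HIV 4E10 and palivizumab as control antibodies.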
Assay [11] has as its target T1, Sm (sphingomyelin). In words: AtheNA Multi-Lyte ANA, Ab at 50 ug/ml.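 Also: monoclonal antibodies probed against a nuclear autoantigen panel (SSA, SSB, Sm, RNP, Scl-70, Jo-1, dsDNA, CentB, histones), with anti-HIV 4E10 and palivizumab as control antibodies.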
Assay [12] has as its target T4, reduced form of Complement Factor H (CFH), treated with TCEP (human, UniProt P08603 19-1231, disulfides reduced with 10 mM TCEP).
T4 construct: also called reduced CFH; reduced form of CFH
In words: immunoblot, SDS-PAGE under reducing conditions, antibody at 0.5 µg/ml, anti-human IgG-HRP, chemiluminescence; lane numbers as in Table 10. Background: A western blot detects proteins with antibodies after separation by electrophoresis.

In assay [13] the target is ribonucleoprotein (RNP). In words: AtheNA Multi-Lyte ANA, Ab at 25 ug/ml.
Assay [14] concerns the target systemic lupus erythematosus autoantigen SSA. Nature of the assay: AtheNA Multi-Lyte ANA, Ab at 25 ug/ml.
The target of assay [15] is T1, Sm (sphingomyelin). Nature of the assay: AtheNA Multi-Lyte ANA, Ab at 25 ug/ml.
Assay [16] has as its target T5, Complement Factor H (CFH) protein, full-length (human, UniProt P08603 19-1231).
T5 construct: also called full-length CFH; native CFH
Nature of the assay: immunoblot, SDS-PAGE under non-reducing conditions, antibody at 0.5 µg/ml, anti-human IgG-HRP, chemiluminescence; lane numbers as in Table 10.

For assay [17], the target named is T6, histidine-tRNA ligase (Jo-1) (UniProt P12081 2-509).
T6 sequence (looked up): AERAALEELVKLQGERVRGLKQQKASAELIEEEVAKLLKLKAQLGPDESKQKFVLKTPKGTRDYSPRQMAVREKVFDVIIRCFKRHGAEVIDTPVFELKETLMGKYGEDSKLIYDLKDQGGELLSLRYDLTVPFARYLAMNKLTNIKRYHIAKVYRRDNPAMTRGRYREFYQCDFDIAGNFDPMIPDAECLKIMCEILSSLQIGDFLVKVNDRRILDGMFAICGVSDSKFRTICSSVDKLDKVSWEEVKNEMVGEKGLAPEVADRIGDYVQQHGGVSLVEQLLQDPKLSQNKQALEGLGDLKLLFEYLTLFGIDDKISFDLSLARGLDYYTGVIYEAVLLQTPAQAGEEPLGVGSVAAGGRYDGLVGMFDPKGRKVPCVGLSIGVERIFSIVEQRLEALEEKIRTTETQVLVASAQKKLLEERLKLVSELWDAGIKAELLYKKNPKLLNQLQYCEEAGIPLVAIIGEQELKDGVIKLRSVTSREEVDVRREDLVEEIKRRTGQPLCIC
In words: AtheNA Multi-Lyte ANA, Ab at 12.5 ug/ml.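 Also: monoclonal antibodies screened for binding to a panel of nuclear autoantigens (SSA, SSB, Sm, RNP, Scl-70, Jo-1, dsDNA, CentB, histones), with anti-HIV and anti-RSV antibodies as controls.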

In assay [18] the target is T7, sclerosis autoantigen (Scl-70) (UniProt P11387 2-765, limits assumed).
T7 sequence (looked up): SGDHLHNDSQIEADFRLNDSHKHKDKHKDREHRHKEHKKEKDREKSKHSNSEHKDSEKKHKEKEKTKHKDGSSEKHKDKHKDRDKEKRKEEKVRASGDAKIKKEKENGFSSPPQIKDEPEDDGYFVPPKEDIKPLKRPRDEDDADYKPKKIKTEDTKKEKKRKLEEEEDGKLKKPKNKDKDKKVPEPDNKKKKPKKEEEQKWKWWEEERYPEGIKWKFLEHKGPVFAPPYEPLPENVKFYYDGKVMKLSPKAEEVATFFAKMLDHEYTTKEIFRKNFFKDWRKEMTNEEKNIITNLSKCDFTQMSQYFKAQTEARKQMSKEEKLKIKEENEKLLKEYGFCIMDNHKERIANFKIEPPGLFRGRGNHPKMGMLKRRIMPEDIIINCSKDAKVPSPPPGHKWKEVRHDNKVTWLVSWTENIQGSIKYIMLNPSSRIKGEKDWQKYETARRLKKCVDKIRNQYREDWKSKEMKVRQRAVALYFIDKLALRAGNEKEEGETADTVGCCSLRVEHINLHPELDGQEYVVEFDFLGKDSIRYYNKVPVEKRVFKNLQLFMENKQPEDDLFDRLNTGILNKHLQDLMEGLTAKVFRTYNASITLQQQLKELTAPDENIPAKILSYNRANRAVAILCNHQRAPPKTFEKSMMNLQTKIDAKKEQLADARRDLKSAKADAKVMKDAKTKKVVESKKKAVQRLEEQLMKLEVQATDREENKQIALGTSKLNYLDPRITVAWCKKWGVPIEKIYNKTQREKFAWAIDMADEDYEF
In words: AtheNA Multi-Lyte ANA, Ab at 12.5 ug/ml.

Assay [19] addresses T8, systemic lupus erythematosus autoantigen SSB (UniProt P05455 1-408, limits assumed).
T8 sequence (looked up): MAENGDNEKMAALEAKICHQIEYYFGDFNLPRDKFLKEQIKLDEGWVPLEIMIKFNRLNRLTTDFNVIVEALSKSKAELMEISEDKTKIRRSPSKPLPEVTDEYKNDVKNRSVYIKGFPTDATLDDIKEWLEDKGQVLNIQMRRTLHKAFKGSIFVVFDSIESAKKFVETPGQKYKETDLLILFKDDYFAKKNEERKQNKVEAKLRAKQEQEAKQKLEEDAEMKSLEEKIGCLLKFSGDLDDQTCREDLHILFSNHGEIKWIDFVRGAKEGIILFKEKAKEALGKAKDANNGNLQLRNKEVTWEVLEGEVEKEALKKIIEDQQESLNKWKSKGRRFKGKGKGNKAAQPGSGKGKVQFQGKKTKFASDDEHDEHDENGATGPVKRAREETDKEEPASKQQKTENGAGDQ
Nature of the assay: AtheNA Multi-Lyte ANA, Ab at 12.5 ug/ml.

Assay [20] addresses T6, histidine-tRNA ligase (Jo-1). Nature of the assay: AtheNA Multi-Lyte ANA, Ab at 6.25 ug/ml.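 Also: monoclonal antibodies screened for reactivity against a panel of nuclear autoantigens, with an anti-HIV and an anti-RSV monoclonal antibody serving as controls.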
For assay [21], the target named is T7, sclerosis autoantigen (Scl-70). In words: AtheNA Multi-Lyte ANA, Ab at 6.25 ug/ml.
The target of assay [22] is T8, systemic lupus erythematosus …. Nature of the assay: AtheNA Multi-Lyte ANA, Ab at 6.25 ug/ml.
Assay [23] has as its target T6, histidine-tRNA ligase (Jo-1). Nature of the assay: AtheNA Multi-Lyte ANA, Ab at 50 ug/ml.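 Also: monoclonal antibodies probed against a nuclear autoantigen panel (SSA, SSB, Sm, RNP, Scl-70, Jo-1, dsDNA, CentB, histones), with anti-HIV 4E10 and palivizumab as control antibodies.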
Assay [24] deals with T7, sclerosis autoantigen (Scl-70). In words: AtheNA Multi-Lyte ANA, Ab at 50 ug/ml.
The target in assay [25] is T8, systemic lupus erythematosus …. Nature of the assay: AtheNA Multi-Lyte ANA, Ab at 50 ug/ml.
Assay [26] has as its target T7, sclerosis autoantigen (Scl-70). Nature of the assay: AtheNA Multi-Lyte ANA, Ab at 25 ug/ml.

Where a chain is given by its changes, count along the chain named. Where no end group is shown, it is not given here. The star is where a group is joined. Biotin = O=C1N[C@H]2[C@H](CS[C@H]2CCCCC(=O)*)N1

T4 sequence (P08603 19-1231 limits assumed): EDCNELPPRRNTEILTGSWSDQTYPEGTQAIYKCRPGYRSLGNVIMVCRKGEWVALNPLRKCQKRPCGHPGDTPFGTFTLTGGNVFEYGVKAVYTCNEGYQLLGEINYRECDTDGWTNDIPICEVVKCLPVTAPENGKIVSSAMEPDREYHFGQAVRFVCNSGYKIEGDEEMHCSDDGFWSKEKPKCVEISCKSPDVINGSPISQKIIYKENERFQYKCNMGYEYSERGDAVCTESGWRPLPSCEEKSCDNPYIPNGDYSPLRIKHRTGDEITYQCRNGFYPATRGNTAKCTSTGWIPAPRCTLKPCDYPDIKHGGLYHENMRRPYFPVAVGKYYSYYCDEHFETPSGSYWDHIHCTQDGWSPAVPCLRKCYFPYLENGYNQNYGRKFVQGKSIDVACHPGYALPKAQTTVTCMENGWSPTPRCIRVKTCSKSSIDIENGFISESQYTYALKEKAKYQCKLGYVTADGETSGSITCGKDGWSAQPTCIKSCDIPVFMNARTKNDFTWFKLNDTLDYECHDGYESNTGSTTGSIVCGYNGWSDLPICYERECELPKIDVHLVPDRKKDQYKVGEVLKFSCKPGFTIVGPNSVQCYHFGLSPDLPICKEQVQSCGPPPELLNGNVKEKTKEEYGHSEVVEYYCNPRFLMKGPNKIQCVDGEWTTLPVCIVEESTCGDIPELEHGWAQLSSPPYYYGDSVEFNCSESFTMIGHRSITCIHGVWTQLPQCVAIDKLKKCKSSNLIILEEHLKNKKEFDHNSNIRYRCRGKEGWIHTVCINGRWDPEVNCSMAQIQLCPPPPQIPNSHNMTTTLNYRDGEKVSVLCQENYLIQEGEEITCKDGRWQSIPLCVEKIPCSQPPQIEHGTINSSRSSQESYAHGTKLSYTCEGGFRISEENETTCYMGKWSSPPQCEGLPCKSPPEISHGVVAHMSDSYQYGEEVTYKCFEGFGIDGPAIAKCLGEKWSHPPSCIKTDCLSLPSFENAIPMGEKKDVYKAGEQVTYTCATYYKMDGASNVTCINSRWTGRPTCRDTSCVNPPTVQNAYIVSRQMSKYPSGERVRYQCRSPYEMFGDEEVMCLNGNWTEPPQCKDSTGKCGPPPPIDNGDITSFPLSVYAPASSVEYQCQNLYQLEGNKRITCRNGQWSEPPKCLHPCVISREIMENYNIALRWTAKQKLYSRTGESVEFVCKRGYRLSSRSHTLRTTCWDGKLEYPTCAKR
T5 sequence (P08603 19-1231 limits assumed): as above

B1: Ab7955 (antibody, V domains shown)
VH: LVESGGGVVRPGRSLRLSCVASGFTFNAYGMHWVRQGPGKGLEWLAVISYEGKTVYYADSVKDRFTISRDNSRNTVSLHLNNLRGEDTAVYYCAKGSASAAVLQHWGQGTLVSVTS
VL: MTQSPGSLAVSLGSRATINCKSSRSLLYRSNNKNYLAWYQQKPGQSPRLLIYWASSRESGVPDRFSGGGSGTSFTLTISSLQAEDVAVYYCQQYFNPPWTFGQGTKVEIK
notes: Recombinant human antibody with IgG1 heavy chain backbone and kappa light chain constant; also called mAb 7955; clone 19
As for B1, the AtheNA signal with ribonucleoprotein (RNP) [1] worked out at 8; in [2], 56; in the assay with Sm (sphingomyelin) [3], 7; in the assay with ribonucleoprotein (RNP) [4], 4; in assay [5] it was 32; with Sm (sphingomyelin) [6], 5. Moreover, the AtheNA signal with ribonucleoprotein (RNP) [9] turned out to be 13; in assay [10], 92; with Sm (sphingomyelin) [11], 10. The EC50 (commonly the midpoint of the concentration-response curve) in assay [7] came to 0.00648 µg/mL. In addition, the binding result in assay [8] is “binds”.

B2: Ab7964 (antibody, IgG1, V domains shown)
VH: LVESGGGVVQPGRSLRLSCAASGVTFSRYGMHWVRQAPGKGLEWVAVISYDEKTKYYADSVKGRFTISRDNSKNTLFLHMNRLRYEDTAVYYCAKGASSGAYFDYWGQGTLVTVSS
VL: not shown
notes: Recombinant human antibody with IgG1 heavy chain backbone and kappa light chain constant; they begin at LVESGGG and MTQSP; also called Ab7964/293i; mAb 7964
For B2, the binding result in assay [12], in assay [16] and in assay [8] was “binds” each time. For the same molecule, the AtheNA signal with ribonucleoprotein (RNP) [13] was found to be 56; in assay [14], 168; with Sm (sphingomyelin) [15], 96; in the assay with ribonucleoprotein (RNP) [1] it was 51; in assay [2], 132; with Sm (sphingomyelin) [3], 67. In addition, the AtheNA signal was determined as 44 with ribonucleoprotein (RNP) [4]; 101 in assay [5]; 47 with Sm (sphingomyelin) [6]; 62 with ribonucleoprotein (RNP) [9]; 162 in assay [10]; 137 with Sm (sphingomyelin) [11]. The EC50 in assay [7] was 0.0152 µg/mL.

B3: Ab7960/293i (antibody, IgG1, V domains shown)
VH: LVESGGGVVQPGKSLRLSCVASGFSFSTYGMHWVRQAPGKGLEWVAVMSFDGKTKYYADSVKGRFTISRDNPKNTLYLQMNSLRSEDTAVYYCAKGGAAAAVFDSWGPGILLTVSS
VL: MTQSPNSLAVSLGGRATINCKASQSILYRSNNKNYLAWYQHKAGQPPKLLIYWASTRESGVPERFSGSGSRTDFTLTINGLQAEDVAVYYCQQYYNPPWTFGQGTKVEIK
notes: Recombinant human antibody with IgG1 heavy chain backbone and kappa light chain constant; they begin at LVESGGG and MTQSP; also called mAb 7960; mAb7960
For the molecule B3, the binding result in [12], in [16] and in [8] was “binds” throughout. For the same molecule, the AtheNA signal in [17] was determined as 4; in [18] it was 3; in the assay with ribonucleoprotein (RNP) [1], 3; in assay [2], 4; with Sm (sphingomyelin) [3] it was 4; in assay [19], 8. The AtheNA signal was determined as 2 in assay [20]; 1 in [21]; 2 with ribonucleoprotein (RNP) [4]; 2 in [5]; 2 with Sm (sphingomyelin) [6]; 7 in assay [22]. The AtheNA signal was found to be 5 in assay [23]; 3 in assay [24]; 4 in the assay with ribonucleoprotein (RNP) [9]; 6 in assay [10]; 2 with Sm (sphingomyelin) [11]; 8 in [25]. The molecule further returned an EC50 in assay [7] of 0.00782 µg/mL.

B4: Ab7961/293i (antibody, IgG1, V domains shown)
VH: B3 VH with S25T, T28S, P108Q
VL: B3 VL with A22T, A43S, E63D, N79S
notes: Recombinant human antibody with IgG1 heavy chain backbone and kappa light chain constant; they begin at LVESGGG and MTQSP; also called mAb 7961; clone 24
Regarding B4, the binding result in [12], in assay [16] and in assay [8] was “binds” each time. Further, the AtheNA signal is 3 in [26]; 8 in the assay with ribonucleoprotein (RNP) [13]; 31 in assay [14]; 5 with Sm (sphingomyelin) [15]; 3 in assay [18]; 6 in the assay with ribonucleoprotein (RNP) [1]. For the same molecule, the AtheNA signal was found to be 24 in assay [2]; 5 with Sm (sphingomyelin) [3]; 2 in [21]; 7 in the assay with ribonucleoprotein (RNP) [4]; 18 in [5]; 4 in the assay with Sm (sphingomyelin) [6]. For the same molecule, the AtheNA signal in [24] stood at 3; with ribonucleoprotein (RNP) [9], 8; in assay [10], 40; in the assay with Sm (sphingomyelin) [11] it was 6. In assay [7], this molecule had an EC50 of 0.0144 µg/mL.
